# Experiment: soluble on expression in E. coli; label from the status in PepcDB or PDB records
row,Sequence,soluble on expression in E. coli
1,MSLGETAWCRHPLAYLVEAADDICYALLDLEDGLEMGILRFDEVAEILIQIAGGAPEGYDGMRARGVSQRRRIATLRGAAMERAVNDVAAVFVAHESALLGGTLSEDLLELCHPDLGWGVGTAKRIARERIFQNERKAKLEIGAYTTLGILLEAFIGAAHELHYSGQSSFKHQRVLALIGENTPKSSWSLYASYRRMLDFIGGMTDHYAVDLAQEMGGRLEGHHHHHH,not soluble
2,MGSDKIHHHHHHMCRLIGYLGNAIPLDELLYKQEHSLYQQSYSPLELKSGVVCADGVGVGWYDQVGKPFIYRNTIPMWNDPNLEELSNYVQSTCTVGYARLAGIGESLDISNCQPFRSDQLLFVHNGEISNFQQTLYRPIRESLSDATYRLIKGTTDSEHIFALLVQMWQSSPDSTLFWALGATLEKLTELASEYNTSFSANLIVSDGEAIAAIRYAYRTQAPTLYWSYDALKHPNQVIVASEPLSNNQNWTAFDEQSMLFFQAQSLEPRISLLKKFSAIGV,not soluble
3,MVNKDVKQTTAFGAPVWDDNNVITAGPRGPVLLQSTWFLEKLAAFDRERIPERVVHAKGSGAYGTFTVTKDITKYTKAKIFSKVGKKTECFFRFSTVAGERGSADAVRDPRGFAMKYYTEEGNWDLVGNNTPVFFIRDAIKFPDFIHTQKRDPQTNLPNHDMVWDFWSNVPESLYQVTWVMSDRGIPKSFRHMDGFGSHTFSLINAKGERFWVKFHFHTMQGVKHLTNEEAAEIRKHDPDSNQRDLFDAIARGDYPKWKLSIQVMPEEDAKKYRFHPFDVTKIWYTQDYPLMEVGIVELNKNPENYFAEVEQAAFTPANVVPGIGYSPDRMLQGRLFSYGDTHRYRLGVNYPQIPVNKPRCPFHSSSRDGYMQNGYYGSLQNYTPSSLPGYKEDKSARDPKFNLAHIEKEFEVWNWDYRADDSDYYTQPGDYYRSLPADEKERLHDTIGESLAHVTHKEIVDKQLEHFKKADPKYAEGVKKALEKHQKMMKDMHGKDMHHTKKKK,soluble
4,MHHHHHHRMKQLEDKVEELLSKNYHLENEVARLRSPPLLVGVVSDILEDGRVVVKSSTGPKFVVNTSQYINEEELKPGARVALNQQTLAIVNVLPTSKDPMVYGFEVEE,soluble
5,MADIPLSGKPRTQVLRWQRQNWVAGLRWEEKQKSVRRAPVQRRGVLNVVLTVKQGKSRLTALGQIEAGWRHQKLYSLAALFSQQCTPNGYGVYQLDDGRQVFLATVKGMPSPMADVIGTPDQIIRARELFLSFNPAPEDGWTIPSSPEFPLSWNTLVGQVSSAQLRFARVAGVSNPLRPYGAGVLSVAALLGGAVWWSRLPEPPVAPVVQELPAPVQDVFKKTPEPVYLPHPWADMPVARHFLNRCQRWRAAVPVSLDRWRLERIRCSAEGLETVYQRQPGGTAAGFAERVKQVFKRTPVFNLVSGGNEGVVFIPWAKFTLQDETAPDAGTQLMQAVSWFQSRQVSFSLSLEHHHHHH,not soluble
6,FRRTGIRRIIIGQDQILFESSDNTVQIFPLNTLKSVDLYSTYDEMIELKAHRQPKITLSKSWIKRKDYRFIVSYLRERSATSGYKYTDYR,not soluble
7,MTNLFLCSLRFQFVVVCTRYDQSVGFSTEEHNIVEDASGFVTQHSSGSTLNESSRSCLQLVIVSQRNLEVYLGRDNVETLRKIGEANRGEFSKDFSVWCKTVFESMSNAYVSSLETEQSNVTSRVTRNIRPRTNEENRMQMEELQTAMQVERSVAASSSLSSSFDWNAFLRDRCGLSEEDVAYCLPKLSFIGMIDLSGVTTEFLLKCGIDSPSLRLRIMLGIRQLLAK,not soluble
8,MGSDKIHHHHHHMTSARRQLIDANATPFYHVINRCVRRAFLCGEDKLTGRSYEHRRGWIVDKIKVLSSIFCIDICAYAVMNNHYHLVLKINVEKAKSLSQREIISRWCQITKGHAVATKYMNGDVLIDGEIMLLDALLAEWHERLSSVSWFMRCLNEEIARKANREDECKGAFWEGRFKSQALLDEQALLACMMYVDLNPIRAGVADSLQSSDFTSIQERISLLNLQRDAFTSLKTQVKSVNKLPQIIHQSLAKFDGPTHQSQQTGIPFHFADYLELIDWTGRAIRLDKKGYIDNQRPKLLHELGIASDAWLTSAKEFRRQYSGISGRWDSMCEFKKQHNSGKWCKGKASSQALHP,not soluble
9,KAELKMLEAIEEDLNTRFADVDRKQLRLGAAGTFQKQEDADQWYKMVKDTFENEIDDIYYDSLSFSIGCHVGPNAIGIGISVVTRDEK,not soluble
10,YPDDLVIGNLSRRGFLKGVGATGVLLVAANWGWRDALAAEKKAFGADAMPHGWVDNPKIYVSIDRDGTVGIVCNRSEMGQGVRTSLAMVVADELEADWSRVKVIQAPGDEARYGNQDTDGSRSMRHWFEPMRRCGAAARQMLEQAAANQWKVPLGECRAEQNKVLHAPSGRSLSFGELAEAAAGLEVPARDKLLLKKPEQFRYIGKDVARAIDGADIVNGRAGFGFDARFDDMLYAVVARPPVYGGKLKRYDAAAALKVPGVVKVIEIEGRPIPSEFQPLGGVAVVAQNTWAAIKGREALVVEWDAGVNGGYDSVAYRKQLEEAARKPGKVVRDSGDAAALFAKGGDIVEAEYYLPHLAQAPMEPPVSTAWYKDGACEVWAPTQAPQVTRERIAERLKLPFDKVTVNVTLLGGGFGRKSKPDFVLEAAILAKAFPGRHLRVQWTREDDLHFSYFHTVSVERLQAVLGADGLPQAWLHRSVAPSITALFGPDSKHQGAFELGMGLTNLPFAIPNVRLENPEAPAHTRVGWFRSVSNIPHAFAIQSFVGELAAKAGQDPKDYLLKLLGPARRIDTAELGDSWNYGESPERYPLDVGRLRGVIEEAARQSGWGGELPRGRARGIAAHYSFVTYVAVVIEVEVKDDGALLVHKATIAADCGPQINPERIRSQLEGACVMGLGLAALGEISFKDGKVQQDNFHQYELARMPLAPKAVSVHLLKPDGDLPLGGVGEPGVPPIAPALCNAIFAATGKRIRELPI,not soluble
11,MEKIRQPTHAGSWYTDNPTKLSSDLEEWLNATGLTKSPDVRGVIAPHAGYSYSGRAAAYAFANIDPTNISRIFLLGPSHHFYTPKCALSTATVYKTPIGNLPVDVEMIKEIRAMGKFGMMDLRVDEAEHSMEMHLPYLAKVFEGNNVKVVPILVGAVSPENEAMYGELLAKYVDDPKNFFSVSSDFCHWGSRFNYMHYDNTHGAIHKSIEALDKKGMDIIETGDPDAFKKYLLEFENTICGRHPISIFLHMLKHSSSKIKINFLRYEQSSQCQTMRDSSVSYASAAAKLET,not soluble
12,MSTHFDVIVVGAGSMGMAAGYQLAKQGVKTLLVDAFDPPHTNGSHHGDTKIIRHAYGEGREYVPLALRSQELWYELEKETHHKIFTKTGVLVFGPKGESAFVAETMEAAKEHSLTVDLLEGDEINKRWPGITVPENYNAIFEPNSGVLFSENCIRAYRELAEARGAKVLTHTRVEDFDISPDSVKIETANGSYTADKLIVSMGAWNSKLLSKLNLDIPLQPYRQVVGFFESDESKYSNDIDFPGFMVEVPNGIYYGFPSFGGCGLKLGYHTFGQKIDPDTINREFGVYPEDESNLRAFLEEYMPGANGELKRGAVCMYTKTLDEHFIIDLHPEHSNVVIAAGFSGHGFKFSSGVGEVLSQLALTGKTEHDISIFSINRPALKESLQKTTI,soluble
13,RSEYVAPRSVWEARLAQVWEQVLNVPQVGALDDFFALGGHSLRAMRVLSSMHNEYQVDIPLRILFEKPTIQELAAFIEETAKGNVFSIEPVQKQAYYPVSSAQKRMYILDQFEGVGISYNMPSTMLIEGKLERTRVEAAFQRLIARHESLRTSFAVVNGEPVQNIHEDVPFALAYSEVTEEEARELVSSLVQPFDLEVAPLIRVSLLKIGEDRYVLFTDMHHSISDGVSSGILLAEWVQLYQGDVLPELRIQYKDFAVWQQEFSQSAAFHKQEAYWLQTFADDIPVLNLPTDFTRPSTQSFAGDQCTIGAGKALTEGLHQLAQATGTTLYMVLLAAYNVLLAKYAGQEDIIVGTPITGRSHADLEPIVGMFVNTLAMRNKPQREKTFSEFLQEVKQNALDAYGHQDYPFEELVEKLAIARDLSRNPLFDTVFTFQNSTEEVMTLPECTLAPFMTDETGQHAKFDLTFSATEEREEMTIGVEYSTSLFTRETMERFSRHFLTIAASIVQNPHIRLGEIDML,soluble
14,MGHHHHHHSHMAKLLSDLSVDSARCKPGNNLTKSLLNIHDKQLQHDPAPAHTSIMSYLNKLETNYSFTHSEPLSTIKNEETIEPDKTYENVLSSRGPQNSNTRGMEEASAPGIISALSKQDSDEGSETMALIEDEHNLDNTIYIPFARSTPEKKSPLSKRLSPQPQIRAATTQLVSNSGLAVSGEENKLCTPVICSSSTKEAEDAPEKLSRASDMKDTQLLKKIKEAIGKIPAATKEPEEQTACHGPSGCLSNSLQVKGNTVCDGSVFTSDLMSDWSISSFSTFTSRDEQDFRNGLAALDANIARLQKSLRTGLLEK,not soluble
15,MGSDKIHHHHHHMKAVNENLKEQFVKRNKLAICATLRELKKNDTSLMVHHSHGQFISKILDVVPDNNLFVFDLGGIERENSRALYAGALSFIAEPAGAKVEFNAEIAKTVNYDGLPAFSAQIPELLYLIQRRTYFRINTPLWPPLTCRGELPDDSVFTFTIKDLSLGGLSLYTDRDTTGLLTEGDIIKSVEMDLADHGFFCVDLQFVGQAMVKIVDNKGELKLTQRLSFKFPSLNAAQERDLQQVIFELEKLQNEKKKRFQEL,not soluble
16,EQKVYEQKTRQQVMLSAYQQKEKDIESILDMQKQNSKQRHDINNVLILISELIQDEKYSKALEVLDKYRTGYNNINVTEIVSNNIVLNYLLNRKINQCREAGIDMACYVLWNIAGVDDMDLYILLENLCDNAIEAAGQCEKPSIKLQIAEDNASMYIDIGNTTSGNVLNNNPHMNTTKKDKNMHGFGIMNIRDIIDKYNGTINYEQQGDNYLMCRCTLEKVCQ,not soluble
17,MGSDKIHHHHHHMEINTEIAIAWMSARQGKVSYSMDYRDGPNSYDCSSSVYYALRSAGASSAGWAVNTEYMHDWLIKNGYELIAENVDWNAVRGDIAIWGMRGHSSGAGGHVVMFIDPENIIHCNWANNGITVNNYNQTAAASGWMYCYVYRLKSGASTQGKSLDTLVKETLAGNYGNGEARKAVLGNQYEAVMSVINGKTTTNQKTVDQLVQEVIAGKHGNGEARKKSLGSQYDAVQKRVTELLKKQPSEPFKAQEVNKPTETKTSQTELTGQATATKEEGDLSFNGTILKKAVLDKILGNCKKHDILPSYALTILHYEGLWGTSAVGKADNNWGGMTWTGQGNRPSGVTVTQGSARPSNEGGHYMHYASVDDFLTDWFYLLRAGGSYKVSGAKTFSEAIKGMFKVGGAVYDYAASGFDSYIVGASSRLKAIEAENGSLDKFDKATDIGDGSKDKIDITIEGIEVTINGITYELTKKPV,not soluble
18,MNLEQLINVLGLLVWIAARAVSRVGPHGSGLVYRELHDFYGYLQLDLLGPVVAGNRSVRTWREQADRARGTFAWRSGLNTSRILPVGSMYRGSDALPAGLYRPEEEVFLLLNRCHGPLSTPKNACLAEVGVANATFLSRFNVGDFHGASWENGTAPDGEPGVCLEHHHHHH,not soluble
19,MKITTWNVNSLNVRLPQVQNLLADNPPDILVLQELKLDQDKFPAAALQMMGWHCVWSGQKTYNGVAIVSRSVPQDVHFGLPALPDDPQRRVIAATVSGVRVINVYCVNGEALDSPKFKYKEQWFAALTEFVRDEMTRHGKLVLLGDFNIAPADADCYDPEKWHEKIHCSSVERQWFQNLLDLGLTDSLRQVHPEGAFYTWFDYRGAMFQRKLGLRIDHILVSPAMAAALKDVRVDLETRALERPSDHAPVTAEFDW,soluble

# Reference: the DeepSol protein solubility set
